Assay results as given in patent publication US20260199504A1.

Molecular target: human Nectin-4 on Nectin4-CHOK1 cells (CHO-K1 cell strain highly expressing Nectin-4) (human) (UniProt Q96NY8)
Assay: cell-based or functional assay

human Nectin-4 on Nectin4-CHOK1 cells (CHO-K1 cell strain highly expressing Nectin-4) (human), sequence (Q96NY8 32-510 limits assumed): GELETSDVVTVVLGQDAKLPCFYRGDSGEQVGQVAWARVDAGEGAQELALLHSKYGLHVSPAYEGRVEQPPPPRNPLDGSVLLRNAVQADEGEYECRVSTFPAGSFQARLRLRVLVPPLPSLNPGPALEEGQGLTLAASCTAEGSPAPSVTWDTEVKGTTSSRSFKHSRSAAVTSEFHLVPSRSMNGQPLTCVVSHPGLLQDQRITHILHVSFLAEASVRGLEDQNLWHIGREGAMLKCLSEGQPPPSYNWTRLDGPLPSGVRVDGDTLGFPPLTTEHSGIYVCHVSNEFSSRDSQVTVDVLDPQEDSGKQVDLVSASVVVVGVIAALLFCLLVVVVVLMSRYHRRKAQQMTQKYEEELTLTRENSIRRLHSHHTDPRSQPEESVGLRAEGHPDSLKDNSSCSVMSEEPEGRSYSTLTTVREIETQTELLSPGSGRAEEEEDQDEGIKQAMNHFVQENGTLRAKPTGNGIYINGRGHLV

FITC-A signal value, 5 nM Ab + 15 nM pHrodo (pHrodo endocytosis assay, Nectin4-CHOK1 clone 3): 129
FITC-A signal value, 20 nM Ab + 60 nM pHrodo (pHrodo endocytosis assay, Nectin4-CHOK1 clone 3): 154
Substance: C25-IgG1 (IgG1 isotype negative control) (antibody)
